This series relates to T1, Pf80 large serine recombinase.
T1 sequence: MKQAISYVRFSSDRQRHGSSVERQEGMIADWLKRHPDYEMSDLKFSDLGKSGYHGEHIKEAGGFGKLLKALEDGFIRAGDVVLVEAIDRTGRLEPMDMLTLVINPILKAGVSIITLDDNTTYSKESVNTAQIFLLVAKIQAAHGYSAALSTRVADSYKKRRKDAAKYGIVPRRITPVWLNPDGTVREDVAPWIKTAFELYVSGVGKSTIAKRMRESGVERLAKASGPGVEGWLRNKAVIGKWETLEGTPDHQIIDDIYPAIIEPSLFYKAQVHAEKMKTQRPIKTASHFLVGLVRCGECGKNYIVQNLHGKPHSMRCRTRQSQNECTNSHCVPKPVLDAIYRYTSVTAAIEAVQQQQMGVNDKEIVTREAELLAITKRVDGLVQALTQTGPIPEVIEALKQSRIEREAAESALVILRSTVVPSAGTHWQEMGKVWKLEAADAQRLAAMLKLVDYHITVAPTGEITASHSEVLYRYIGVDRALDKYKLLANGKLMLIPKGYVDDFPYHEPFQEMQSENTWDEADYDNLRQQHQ
Description: cell_activity. The note with it: share of unique integration reads at predicted site.

Among the data in US20240417754 are on-target integration read share values, retold here.

For Pf80 attH (FKBP2 exon), the on-target integration read share is 34.3%.
